Measurements published in the supplement of paper PMC10065799, “High-throughput profiling of sequence recognition by tyrosine kinases and SH2 domains using bacterial peptide display” (eLife, 2023).

Target: FGFR3 (UniProt P22607)
Experiment: phosphorylation enrichment, bacterial display (enrichment ratio); higher = better substrate or ligand; peptides without Tyr show the background
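Note: 11-residue human phosphosite peptides and single-mutation variants displayed on the E. coli surface, counted by deep sequencing, each peptide's frequency after selection divided by its frequency in the unselected input library; frequency after pTyr selection over input frequency; kinase dosed for 20-30% of maximal phosphorylation in three min.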

Chain of FGFR3 (P22607 whole entry, looked up): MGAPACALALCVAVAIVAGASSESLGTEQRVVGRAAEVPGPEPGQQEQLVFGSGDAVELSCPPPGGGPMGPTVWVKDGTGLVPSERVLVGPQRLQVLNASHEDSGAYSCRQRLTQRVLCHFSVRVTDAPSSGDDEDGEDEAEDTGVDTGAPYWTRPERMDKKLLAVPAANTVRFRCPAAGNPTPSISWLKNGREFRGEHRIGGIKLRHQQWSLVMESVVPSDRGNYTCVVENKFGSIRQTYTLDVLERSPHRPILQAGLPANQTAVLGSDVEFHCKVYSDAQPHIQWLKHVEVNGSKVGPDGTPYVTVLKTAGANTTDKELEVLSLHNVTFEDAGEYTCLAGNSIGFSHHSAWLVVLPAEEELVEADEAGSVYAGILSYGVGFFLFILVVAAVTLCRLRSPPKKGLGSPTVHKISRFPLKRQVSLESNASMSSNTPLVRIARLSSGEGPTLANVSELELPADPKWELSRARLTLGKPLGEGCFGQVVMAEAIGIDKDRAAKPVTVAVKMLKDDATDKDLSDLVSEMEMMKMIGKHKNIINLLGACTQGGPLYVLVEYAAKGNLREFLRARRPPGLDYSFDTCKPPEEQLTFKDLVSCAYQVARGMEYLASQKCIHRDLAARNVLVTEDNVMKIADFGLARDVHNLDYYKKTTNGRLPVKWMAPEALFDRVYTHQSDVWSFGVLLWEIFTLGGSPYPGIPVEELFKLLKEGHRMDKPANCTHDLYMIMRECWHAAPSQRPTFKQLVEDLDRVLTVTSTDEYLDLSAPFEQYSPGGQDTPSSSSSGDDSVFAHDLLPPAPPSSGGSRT

Sequence	phosphorylation enrichment
TFRPPYYHRDC [HGD_Y333_N337D]	1.12
HCFNSYTFPRL [PAK7_Y316_S312C_YF]	0.978
AESPEYVHMYT [FAM111A_Y511]	1.26
VVQGIYGFHHH [UFSP2_Y285_Y290H_YF]	0.496
QKLPLYILENN [VPS13B_Y2774_S2773L]	0.761
AWVARYIFKRL [LPCAT3_Y348]	0.604
FLAVGYHQPHI [IDS_Y225_K227Q]	0.514
IHETTYKSIMK [ACTA1_Y281_N282K]	0.472
ATRKAYGQALA [TKT_Y321]	0.395
KVGPGYLGSRG [RET_Y826_G830R]	0.339
ELELLYPDRNS [NYX_Y284_L285P]	0.759
MEYAKYGSLRG [RET_Y809_V804M]	0.458
PLDGESFTLQI [TP53_Y327_Y327S]	1.05
YYSSEYHYVGG [CTSC_Y345]	16.1
CSRHFYQLTKL [AR_Y858_R856H]	0.662
IDDNQYAYLKA [HNF4A_Y286_E285Q]	1.69
NTQRPYYKGGG [TYROBP_Y111]	0.421

Sequence	phosphorylation enrichment
QFNPEYVQQAS [LRRC7_Y1058_H1054Y_YF]	0.761
DFDNLYFWDQD [ERBB2_Y1221_A1216D_YF]	7.69
VAMDDYLKNVV [LRRK2_Y707_M712V]	0.666
MYDKEYYSVHN [MET_Y1234]	4.25
MKVPVYETPAG [PGM5_Y358]	0.649
AHPIIYEIIEA [PYKtide_E_2014]	1.59
RKETFYTLSCR [GUCY2C_Y681]	1.39
LQRCKYSHMEP [TEX45_Y434]	0.957
NDQANYLLNTD [ADA_Y290_S291L]	0.601
EGDGVYTLNNK [HP_Y125_E130K]	0.586
FSCLPYGRLAF [SLC52A2_Y305_YF]	0.649
PVDVAYRRGFF [PLEC_Y2967_YF]	0.535
QTLTDYDTRFF [CSNK2A3_Y131_I133T_YF]	0.912
CTTIHYNFTCN [TP53_Y234_M237T_YF]	0.593
RLRKFYLGKFL [KLB_Y906_YF]	0.64
FISVGYVDDTQ [HLA-B_Y51]	0.743

Tested on: Fer (mouse)
Experiment: as above

Sequence	phosphorylation enrichment
TFRPPYYHRDC [HGD_Y333_N337D]	0.756
HCFNSYTFPRL [PAK7_Y316_S312C_YF]	0.804
AESPEYVHMYT [FAM111A_Y511]	0.467
VVQGIYGFHHH [UFSP2_Y285_Y290H_YF]	11.7
QKLPLYILENN [VPS13B_Y2774_S2773L]	0.551
AWVARYIFKRL [LPCAT3_Y348]	0.482
FLAVGYHQPHI [IDS_Y225_K227Q]	0.35
IHETTYKSIMK [ACTA1_Y281_N282K]	0.372
ATRKAYGQALA [TKT_Y321]	0.36
KVGPGYLGSRG [RET_Y826_G830R]	0.328
ELELLYPDRNS [NYX_Y284_L285P]	0.463
MEYAKYGSLRG [RET_Y809_V804M]	0.431
PLDGESFTLQI [TP53_Y327_Y327S]	0.552
YYSSEYHYVGG [CTSC_Y345]	4.51
CSRHFYQLTKL [AR_Y858_R856H]	0.615
IDDNQYAYLKA [HNF4A_Y286_E285Q]	1
NTQRPYYKGGG [TYROBP_Y111]	0.411

Sequence	phosphorylation enrichment
QFNPEYVQQAS [LRRC7_Y1058_H1054Y_YF]	0.648
DFDNLYFWDQD [ERBB2_Y1221_A1216D_YF]	2.2
VAMDDYLKNVV [LRRK2_Y707_M712V]	0.405
MYDKEYYSVHN [MET_Y1234]	0.727
MKVPVYETPAG [PGM5_Y358]	11.6
AHPIIYEIIEA [PYKtide_E_2014]	16.2
RKETFYTLSCR [GUCY2C_Y681]	1
LQRCKYSHMEP [TEX45_Y434]	0.582
NDQANYLLNTD [ADA_Y290_S291L]	0.379
EGDGVYTLNNK [HP_Y125_E130K]	0.455
FSCLPYGRLAF [SLC52A2_Y305_YF]	0.559
PVDVAYRRGFF [PLEC_Y2967_YF]	0.584
QTLTDYDTRFF [CSNK2A3_Y131_I133T_YF]	0.684
CTTIHYNFTCN [TP53_Y234_M237T_YF]	0.426
RLRKFYLGKFL [KLB_Y906_YF]	0.468
FISVGYVDDTQ [HLA-B_Y51]	0.471

Target: Fes (UniProt P07332)
Experiment: as above

Chain of Fes (P07332 whole entry, looked up): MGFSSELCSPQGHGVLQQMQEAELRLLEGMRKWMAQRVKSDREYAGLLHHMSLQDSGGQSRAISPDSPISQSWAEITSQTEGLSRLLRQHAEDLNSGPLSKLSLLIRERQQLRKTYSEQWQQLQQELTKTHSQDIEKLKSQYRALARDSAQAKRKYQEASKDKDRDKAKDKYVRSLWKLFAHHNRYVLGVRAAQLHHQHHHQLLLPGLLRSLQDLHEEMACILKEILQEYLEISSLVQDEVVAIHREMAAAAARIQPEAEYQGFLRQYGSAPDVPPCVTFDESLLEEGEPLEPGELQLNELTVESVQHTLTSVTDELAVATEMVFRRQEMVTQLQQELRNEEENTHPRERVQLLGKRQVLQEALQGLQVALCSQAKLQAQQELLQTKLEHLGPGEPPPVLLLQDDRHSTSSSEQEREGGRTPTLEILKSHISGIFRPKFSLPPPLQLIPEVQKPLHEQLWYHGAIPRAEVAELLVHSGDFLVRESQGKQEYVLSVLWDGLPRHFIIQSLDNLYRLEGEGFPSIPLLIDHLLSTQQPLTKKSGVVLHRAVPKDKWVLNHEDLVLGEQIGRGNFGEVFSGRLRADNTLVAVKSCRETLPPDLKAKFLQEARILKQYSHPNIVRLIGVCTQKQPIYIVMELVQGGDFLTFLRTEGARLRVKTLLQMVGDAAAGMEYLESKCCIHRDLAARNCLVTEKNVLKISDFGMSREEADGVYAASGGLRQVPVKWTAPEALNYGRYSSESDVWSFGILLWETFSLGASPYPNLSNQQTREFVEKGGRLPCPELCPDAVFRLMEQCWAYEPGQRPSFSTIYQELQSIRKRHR

Sequence	phosphorylation enrichment
TFRPPYYHRDC [HGD_Y333_N337D]	1.28
HCFNSYTFPRL [PAK7_Y316_S312C_YF]	1.72
AESPEYVHMYT [FAM111A_Y511]	1.01
VVQGIYGFHHH [UFSP2_Y285_Y290H_YF]	0.776
QKLPLYILENN [VPS13B_Y2774_S2773L]	1.28
AWVARYIFKRL [LPCAT3_Y348]	1.25
FLAVGYHQPHI [IDS_Y225_K227Q]	0.593
IHETTYKSIMK [ACTA1_Y281_N282K]	0.583
ATRKAYGQALA [TKT_Y321]	0.612
KVGPGYLGSRG [RET_Y826_G830R]	0.55
ELELLYPDRNS [NYX_Y284_L285P]	1.27
MEYAKYGSLRG [RET_Y809_V804M]	0.605
PLDGESFTLQI [TP53_Y327_Y327S]	1.67
YYSSEYHYVGG [CTSC_Y345]	0.945
CSRHFYQLTKL [AR_Y858_R856H]	1.17
IDDNQYAYLKA [HNF4A_Y286_E285Q]	0.91
NTQRPYYKGGG [TYROBP_Y111]	0.592

Sequence	phosphorylation enrichment
QFNPEYVQQAS [LRRC7_Y1058_H1054Y_YF]	1.46
DFDNLYFWDQD [ERBB2_Y1221_A1216D_YF]	1.71
VAMDDYLKNVV [LRRK2_Y707_M712V]	0.919
MYDKEYYSVHN [MET_Y1234]	1.1
MKVPVYETPAG [PGM5_Y358]	1.08
AHPIIYEIIEA [PYKtide_E_2014]	5.96
RKETFYTLSCR [GUCY2C_Y681]	2.07
LQRCKYSHMEP [TEX45_Y434]	1.35
NDQANYLLNTD [ADA_Y290_S291L]	0.968
EGDGVYTLNNK [HP_Y125_E130K]	0.857
FSCLPYGRLAF [SLC52A2_Y305_YF]	1.01
PVDVAYRRGFF [PLEC_Y2967_YF]	0.833
QTLTDYDTRFF [CSNK2A3_Y131_I133T_YF]	1.09
CTTIHYNFTCN [TP53_Y234_M237T_YF]	0.866
RLRKFYLGKFL [KLB_Y906_YF]	0.624
FISVGYVDDTQ [HLA-B_Y51]	1.05

Target: Fyn (UniProt P06241)
Experiment: as above

Chain of Fyn (P06241 whole entry, looked up): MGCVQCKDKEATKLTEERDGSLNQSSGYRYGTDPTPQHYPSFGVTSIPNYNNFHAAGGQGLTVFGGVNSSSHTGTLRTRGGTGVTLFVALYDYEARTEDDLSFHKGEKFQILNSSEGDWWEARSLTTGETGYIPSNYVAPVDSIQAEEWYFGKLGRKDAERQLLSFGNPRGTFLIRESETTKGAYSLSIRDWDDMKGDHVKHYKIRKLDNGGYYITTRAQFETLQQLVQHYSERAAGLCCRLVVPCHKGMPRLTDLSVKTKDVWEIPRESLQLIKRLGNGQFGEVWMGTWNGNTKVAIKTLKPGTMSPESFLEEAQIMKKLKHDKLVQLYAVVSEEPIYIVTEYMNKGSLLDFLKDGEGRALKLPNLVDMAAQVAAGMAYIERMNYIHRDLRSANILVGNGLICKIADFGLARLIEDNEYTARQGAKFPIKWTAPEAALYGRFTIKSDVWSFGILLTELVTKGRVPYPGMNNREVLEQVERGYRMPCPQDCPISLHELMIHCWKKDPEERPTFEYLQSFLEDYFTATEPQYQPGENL

Sequence	phosphorylation enrichment
TFRPPYYHRDC [HGD_Y333_N337D]	0.658
HCFNSYTFPRL [PAK7_Y316_S312C_YF]	0.707
AESPEYVHMYT [FAM111A_Y511]	0.423
VVQGIYGFHHH [UFSP2_Y285_Y290H_YF]	11.7
QKLPLYILENN [VPS13B_Y2774_S2773L]	0.556
AWVARYIFKRL [LPCAT3_Y348]	0.502
FLAVGYHQPHI [IDS_Y225_K227Q]	0.418
IHETTYKSIMK [ACTA1_Y281_N282K]	0.309
ATRKAYGQALA [TKT_Y321]	0.335
KVGPGYLGSRG [RET_Y826_G830R]	0.329
ELELLYPDRNS [NYX_Y284_L285P]	0.492
MEYAKYGSLRG [RET_Y809_V804M]	1.14
PLDGESFTLQI [TP53_Y327_Y327S]	0.569
YYSSEYHYVGG [CTSC_Y345]	5
CSRHFYQLTKL [AR_Y858_R856H]	0.444
IDDNQYAYLKA [HNF4A_Y286_E285Q]	0.668
NTQRPYYKGGG [TYROBP_Y111]	0.305

Sequence	phosphorylation enrichment
QFNPEYVQQAS [LRRC7_Y1058_H1054Y_YF]	0.687
DFDNLYFWDQD [ERBB2_Y1221_A1216D_YF]	6.47
VAMDDYLKNVV [LRRK2_Y707_M712V]	0.364
MYDKEYYSVHN [MET_Y1234]	0.64
MKVPVYETPAG [PGM5_Y358]	6.27
AHPIIYEIIEA [PYKtide_E_2014]	9.6
RKETFYTLSCR [GUCY2C_Y681]	2.44
LQRCKYSHMEP [TEX45_Y434]	0.375
NDQANYLLNTD [ADA_Y290_S291L]	0.491
EGDGVYTLNNK [HP_Y125_E130K]	7.02
FSCLPYGRLAF [SLC52A2_Y305_YF]	0.629
PVDVAYRRGFF [PLEC_Y2967_YF]	0.424
QTLTDYDTRFF [CSNK2A3_Y131_I133T_YF]	0.702
CTTIHYNFTCN [TP53_Y234_M237T_YF]	0.443
RLRKFYLGKFL [KLB_Y906_YF]	0.689
FISVGYVDDTQ [HLA-B_Y51]	0.47
